This sample holds only a part of the variants without activity.
Key:
biotinyl-Ile-oxazolone = test: self-aminoacylation, catalytic enhancement (BIO) (fold over background); higher = more active; k-Seq, kA / k0A0; sequences stand for … in GGGAAUGGAUCCACAUCUACGAAUUC…UUCACUGCAGACUUGACGAAGCUG
Procedure, shortened: (§1)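 Working in 50 μL HEPES/NaCl/KCl/MgCl2/CaCl2 buffer with 5% acetonitrile at pH 6.9–7.0, mutagenized RNA pools (0.43 μM; 21-nt variable region) were reacted with 2–1250 μM of each biotinyl-aminoacyl-oxazolone for 90 minutes at room temperature. Streptavidin capture followed, with quantification by triplicate qPCR and Illumina sequencing. Catalytic enhancement is reported as median kA over the uncatalyzed rate, the low-activity peak of a bimodal Gaussian fit to the data.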

biotinyl-Val-oxazolone = test: self-aminoacylation, catalytic enhancement (BVO) (fold over background); higher = more active; k-Seq, kA / k0A0; sequences stand for … in GGGAAUGGAUCCACAUCUACGAAUUC…UUCACUGCAGACUUGACGAAGCUG
Procedure, shortened: as §1

biotinyl-Trp-oxazolone = test: self-aminoacylation, catalytic enhancement (BWO) (fold over background); higher = more active; k-Seq, kA / k0A0; sequences stand for … in GGGAAUGGAUCCACAUCUACGAAUUC…UUCACUGCAGACUUGACGAAGCUG
Procedure, shortened: as §1

biotinyl-Met-oxazolone = test: self-aminoacylation, catalytic enhancement (BMO) (fold over background); higher = more active; k-Seq, kA / k0A0; sequences stand for … in GGGAAUGGAUCCACAUCUACGAAUUC…UUCACUGCAGACUUGACGAAGCUG
Procedure, shortened: as §1

biotinyl-Phe-oxazolone = test: self-aminoacylation, catalytic enhancement (BFO) (fold over background); higher = more active; k-Seq, kA / k0A0; sequences stand for … in GGGAAUGGAUCCACAUCUACGAAUUC…UUCACUGCAGACUUGACGAAGCUG
Procedure, shortened: as §1

biotinyl-Leu-oxazolone = test: self-aminoacylation, catalytic enhancement (BLO) (fold over background); higher = more active; k-Seq, kA / k0A0; sequences stand for … in GGGAAUGGAUCCACAUCUACGAAUUC…UUCACUGCAGACUUGACGAAGCUG
Procedure, shortened: as §1

Sequence	self-aminoacylation (biotinyl-Ile-oxazolone)	self-aminoacylation (biotinyl-Val-oxazolone)	self-aminoacylation (biotinyl-Trp-oxazolone)	self-aminoacylation (biotinyl-Met-oxazolone)	self-aminoacylation (biotinyl-Phe-oxazolone)	self-aminoacylation (biotinyl-Leu-oxazolone)
CUAUUUCAAAGAAUCGGUCUG [Fam1A.1 aminoacylation ribozyme variant]	0.887	0.794	1.12	0.93	1.19	0.86
CUAUUUCAAAUAAUCGGUCUG [Fam1A.1 aminoacylation ribozyme variant]	0.912	0.816	2.2	0.849	3.5	0.814
CUAUUUCAUACAAUCGGUCUG [Fam1A.1 aminoacylation ribozyme variant]	0.911	0.801	0.625	0.837	0.812	0.804
CUAUUUGAAACAAUCGGUCUG [Fam1A.1 aminoacylation ribozyme variant]	0.803	0.707	0.463	0.815	0.697	0.779
CUCCACUUCAAGCAAUCGGUC [Fam1B.1 aminoacylation ribozyme variant]	1.37	1.45	27.6	1.27	50.4	2.07
CUCCUACAAACAAUCGGUCUG [Fam1A.1 aminoacylation ribozyme variant]	0.836	0.693	0.924	0.838	0.939	0.873
CUCCUGCAAACAAUCGGUCUG [Fam1A.1 aminoacylation ribozyme variant]	0.858	1.06	0.784	1.14	4	0.904
CUCCUUCAAACAAUCGGUCGG [Fam1A.1 aminoacylation ribozyme variant]	1.32	1.33	24.2	1.96	62.4	2.14
CUCCUUCAAACAAUCGGUCUG [Fam1A.1 aminoacylation ribozyme variant]	1.1	1.2	32.3	1.29	59.2	2.04
CUCCUUCAAAUAAUCGGUCUG [Fam1A.1 aminoacylation ribozyme variant]	1.13	0.835	11.2	1.08	13.4	1.23
CUGCUUCAAAAAAUCGGUCUG [Fam1A.1 aminoacylation ribozyme variant]	1.35	0.976	14.2	1.25	17.9	1.59
CUGCUUCAAACAAGCGGUCUG [Fam1A.1 aminoacylation ribozyme variant]	0.718	0.731	0.576	0.597	0.392	0.777
CUGCUUCAAACAAUCGCUCUG [Fam1A.1 aminoacylation ribozyme variant]	0.876	0.888	3.14	0.937	4.43	0.984
CUGCUUCAAACAAUCGGUAUG [Fam1A.1 aminoacylation ribozyme variant]	1.29	1.33	40.2	1.56	75.4	2.5
CUGCUUCAAACAAUCGGUCUU [Fam1A.1 aminoacylation ribozyme variant]	1.84	1.72	52	1.91	107	2.97
CUGCUUCAAACAAUCGGUUUG [Fam1A.1 aminoacylation ribozyme variant]	2.07	2.1	84.2	2.38	223	3.93
CUGCUUCAAACCAUCGGUCUG [Fam1A.1 aminoacylation ribozyme variant]	0.708	0.887	0.706	0.677	0.756	0.631
CUGCUUCAUACAAUCGGUCUG [Fam1A.1 aminoacylation ribozyme variant]	0.671	0.602	0.32	0.69	0.639	0.628
CUGCUUCCAACAAUCGGUCUG [Fam1A.1 aminoacylation ribozyme variant]	0.634	0.691	1.02	0.737	1.03	0.73
CUUACCCUAGUCAUCGAGUGA [Fam2.1 aminoacylation ribozyme variant]	2.99	3.24	6.07	4.55	5.25	5.38
CUUACCCUGGUCAUCGAAUGA [Fam2.1 aminoacylation ribozyme variant]	1.01	0.985	0.668	0.915	1.02	0.937
CUUACCCUGGUCAUCGAGUGU [Fam2.1 aminoacylation ribozyme variant]	8.72	9.84	25.6	26.4	102	24.6
CUUACCCUGGUCAUCGAUUGA [Fam2.1 aminoacylation ribozyme variant]	0.751	0.929	1.34	0.863	0.863	0.839
CUUACCCUGGUCAUCGUGUGA [Fam2.1 aminoacylation ribozyme variant]	1.79	2.11	2.98	2.8	11.1	2.87
CUUACCCUGGUCAUUGAGUGA [Fam2.1 aminoacylation ribozyme variant]	3.9	3.81	8.86	7.17	22.8	7.58
CUUACCCUGGUCCUCGAGUGA [Fam2.1 aminoacylation ribozyme variant]	2.44	3.36	5.89	5.36	28.8	4.96

Sequence	self-aminoacylation (biotinyl-Ile-oxazolone)	self-aminoacylation (biotinyl-Val-oxazolone)	self-aminoacylation (biotinyl-Trp-oxazolone)	self-aminoacylation (biotinyl-Met-oxazolone)	self-aminoacylation (biotinyl-Phe-oxazolone)	self-aminoacylation (biotinyl-Leu-oxazolone)
CUUACCCUUGUCAUCGAGUGA [Fam2.1 aminoacylation ribozyme variant]	2.56	3.03	5.14	4.62	7.91	4.14
CUUCAACUAGGUCAUCGGGUG [Fam2.2 aminoacylation ribozyme variant]	3.17	3.22	4.93	5.42	31.8	6.16
CUUCACCUAAGUCAUCGGGUG [Fam2.2 aminoacylation ribozyme variant]	4.46	5.22	5.5	6.58	42.2	8.79
CUUCACCUAGCUCAUCGGGUG [Fam2.2 aminoacylation ribozyme variant]	1.76	2.37	2.82	2.21	9.04	2.43
CUUCACCUAGGUCAUCCGGUG [Fam2.2 aminoacylation ribozyme variant]	5.77	4.94	6.39	6.47	34.5	8.19
CUUCACCUAGGUCAUCGGGUA [Fam2.2 aminoacylation ribozyme variant]	4.43	5.19	5.72	6.65	23.4	7.28
CUUCACCUAGGUCAUGGGGUG [Fam2.2 aminoacylation ribozyme variant]	2.5	2.7	3.7	2.84	11.6	4.06
CUUCAUCUAGGUCAUCGGGUG [Fam2.2 aminoacylation ribozyme variant]	4.55	4.7	5.49	6.52	38.8	7.99
CUUCCCCUAGGUCAUCGGGUG [Fam2.2 aminoacylation ribozyme variant]	4.92	5.07	7.71	8.7	60.1	10.5
CUUCCCCUGGUCAUCGAGUGA [Fam2.1 aminoacylation ribozyme variant]	3.23	3.42	7.51	5.92	40.1	6.32
CUUCGUCAAACAAUCGGUCUG [Fam1A.1 aminoacylation ribozyme variant]	1.87	1.55	2.23	1.65	9.15	1.62
CUUCUUCAAACAACCGGUCUG [Fam1A.1 aminoacylation ribozyme variant]	1.11	0.949	0.846	0.98	0.852	0.961
CUUCUUCAAACAAUAGGUCUG [Fam1A.1 aminoacylation ribozyme variant]	0.883	0.832	0.568	0.817	0.983	0.825
CUUCUUCAAACAAUCGGUCGG [Fam1A.1 aminoacylation ribozyme variant]	0.873	0.789	7.44	1.12	10.9	1.24
CUUCUUCAAACAAUCUGUCUG [Fam1A.1 aminoacylation ribozyme variant]	0.768	0.698	1.15	0.587	2.27	0.748
CUUCUUCAAACCAUCGGUCUG [Fam1A.1 aminoacylation ribozyme variant]	0.856	0.775	0.509	0.682	0.739	0.722
GAGUUUGCGAAUAGUCGCAAG [Fam3.1 aminoacylation ribozyme variant]	1.68	1.56	2.35	1.8	7.65	1.76
GAGUUUGCUAAUAGUCGCAAA [Fam3.1 aminoacylation ribozyme variant]	2.47	2.15	1.59	1.64	3.15	1.93
GAGUUUGCUAAUAGUCGCGAG [Fam3.1 aminoacylation ribozyme variant]	1.55	1.38	2.17	1.63	1.76	1.47
GAGUUUGCUUAUAGUCGCAAG [Fam3.1 aminoacylation ribozyme variant]	1.65	1.39	1.75	1.44	2.28	1.24
GCACACUACAAGCAAUCGGUC [Fam1B.1 aminoacylation ribozyme variant]	1.36	1.26	1.68	0.979	1.55	1.14
GCACACUGCAAGCAAUCGGUC [Fam1B.1 aminoacylation ribozyme variant]	2.14	2.12	2.4	1.87	1.77	1.87
GCACACUUCAAGCAAUCGGGC [Fam1B.1 aminoacylation ribozyme variant]	3.11	3.09	4.23	2.58	13.7	3.02
GCACACUUCAAGCAAUCGGUU [Fam1B.1 aminoacylation ribozyme variant]	3.38	2.86	6.83	2.66	4.75	3.33
GCACACUUCAAGCAUUCGGUC [Fam1B.1 aminoacylation ribozyme variant]	2.57	2.59	3.5	2.09	4.96	2.17

— the supplement of paper PMC9233669
